# T1: recombinant canine OX40L ECD-TNCc-HIS protein (canine)
# T1 construct: also called Trimeric OX40L probe (HIS tag); trimeric canine OX40L
# T1 chain: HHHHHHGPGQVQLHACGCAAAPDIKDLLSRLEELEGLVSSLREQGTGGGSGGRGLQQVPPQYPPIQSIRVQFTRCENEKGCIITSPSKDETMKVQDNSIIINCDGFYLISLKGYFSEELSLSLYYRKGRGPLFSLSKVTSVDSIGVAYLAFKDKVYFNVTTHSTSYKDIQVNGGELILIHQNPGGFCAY
# T2: canine OX40L, full length membrane form, expressed on HEK293 cells (canine)
# T2 construct: also called OX40L expressing HEK; HEK OX40L cells
# T2 chain: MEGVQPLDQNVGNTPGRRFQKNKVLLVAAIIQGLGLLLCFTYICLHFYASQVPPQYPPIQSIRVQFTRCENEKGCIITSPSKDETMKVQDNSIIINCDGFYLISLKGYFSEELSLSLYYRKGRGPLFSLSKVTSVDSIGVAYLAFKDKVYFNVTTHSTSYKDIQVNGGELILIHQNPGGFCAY
# Key:
# [1] = target: T1, recombinant canine OX40L ECD-TNCc-HIS …; experiment: SPR Koff (kd2)
# Method in brief: (§1)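 Purified antigen amine-coupled at low density to a CM5 chip; candidate antibodies injected as analyte over a concentration range. Kinetic curves fitted with a bivalent analyte model to give functional affinity and dissociation rates.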
# [2] = target: T1, recombinant canine OX40L ECD-TNCc-HIS …; experiment: SPR Koff (kd1)
# Method in brief: as §1
# [3] = target: T2, canine OX40L, full length membrane …; experiment: flow cytometry
# Method in brief: (§2)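 CHO supernatants at 1, 5 or 10 μg/ml in PBS/3% FBS incubated 30′ on ice with cells surface-expressing canine OX40L. Bound antibody detected with fluorescent anti-canine Fc secondary (1:1000, 30 min, dark) and measured by flow cytometry, with parental WT HEK signal subtracted where stated.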
# [4] = target: T2, canine OX40L, full length membrane …; experiment: flow cytometry, OX40L HEK minus WT HEK
# Method in brief: as §2
# [5] = target: T2, canine OX40L, full length membrane …; experiment: cell-based or functional assay
# [6] = target: T1, recombinant canine OX40L ECD-TNCc-HIS …; experiment: SPR KD1, bivalent analyte model
# Method in brief: as §1
koff [1] [s⁻¹],koff [2] [s⁻¹],GEO mean OX40L expressing HEK [3],GEO mean difference [4],% Signal Inhibition Average [5] [%],% Signal Inhibition Rep1 [5] [%],% Signal Inhibition Rep2 [5] [%],% Signal Inhibition Rep3 [5] [%],Kd [6] [nM],Binder
0.000924,0.0283,1.42e+06,1.39e+06,65.6,70.6,83.9,42.3,114,"PMX030 (antibody, also called PMX30) heavy: EVQLVESGGDLVKPGGSLRLSCVASGFTFSNYHMNWVRQAPGKGLQWVAYVVSGGSTTSYADAVKGRFTISRDNAKNTLYLQMNSLRAEDTAVYYCAKGTSSWGVPMDYWGHGTSLFVSSASTTAPSVFPLAPSCGSTSGSTVALACLVSGYFPEPVTVSWNSGSLTSGVHTFPSVLQSSGLYSLSSMVTVPSSRWPSETFTCNVAHPASKTKVDKPVPKRENGRVPRPPDCPKCPAPESLGGPSVFIFPPKPKDTLLIARTPEVTCVVVDLGREDPEVQISWFVDGKQMQTAKTQPREEQFNGTYRVVSVLPIGHQDWLKGKQFTCKVNHIGLPSPIERTISKARGQAHQPSVYVLPPSREELSKNTVSLTCLIKDFFPPDIDVEWQSNGQQEPESKYRTTPPQLDEDGSYFLYSKLSVDKSRWQRGDTFICAVMHEALHNHYTQKSLSHSPGK VL: SYVLTQLPSVSVTLRQTARITCGGDSIRSKNVYWYQQKLGQAPVLIIYDDSSRPSGIPERFSGANSGNTATLTISGALAEDEADYYCQVWDSSTSVFGGGTHLTVL"
145,0.000387,602000,598000,73.7,81.6,77.5,62.1,1,"PMX293 (antibody, V domains shown) VH: EVRLLESGGDLVKPAGSLRLSCAVSGFTFSTYDMSWVRQAPGKGLQWVAYITYDGRTTSYTDTVKGRFTVSRDNAKNMLYLKMNSLRSEDAAVYYCAKAHRGWFFDHWGQGTLVTVSS VL: SYVLTQLPSVSVTLRQTARITCGGDSIGSKNVYWYQQKLGQAPVLIIYDDTSRPSGIPERFSGANSGTTATLTISGALAEDEADYYCQVWDSSTGVFGGGTHLTVL"
2.69,0.00155,595000,591000,78.6,94,88.7,53,14.4,"PMX294 (antibody, V domains shown) VH: EVQLVESGGDLVKPEGSLRLSCAVSGFTFSSNDMSWVRQAPGKGLQWVAYITYDGRSTSYTDIVKGRFTVSRDNAKNTLYLQMNSLRSEDAAVYYCAKAQRGWFFDYWGQGTLVTVSS VL: SYVLTQLPSVSVTLRQTARITCGGDSIGSKNVYWYQQKLGQAPVLIIYDDDSRPSGIPERISGANSGNTATLTISGALAEDEADYYCQVWDSSTGVFGGGTHLTVL"
0.000606,0.0124,1.55e+06,1.51e+06,78.4,83.5,89.1,62.7,154,"PMX031 (antibody, also called PMX31) heavy: EVQLVESGGDLVKPGGSLRLSCVASGFTFSNYHMNWVRQAPGKGLQWVAYVVSGGTTTTYADAVKGRFTISRDNAKNTLYLQMNSLRAEDTAVYYCAKGTSTWGVPMDYWGHGTSLFVSSASTTAPSVFPLAPSCGSTSGSTVALACLVSGYFPEPVTVSWNSGSLTSGVHTFPSVLQSSGLYSLSSMVTVPSSRWPSETFTCNVAHPASKTKVDKPVPKRENGRVPRPPDCPKCPAPESLGGPSVFIFPPKPKDTLLIARTPEVTCVVVDLGREDPEVQISWFVDGKQMQTAKTQPREEQFNGTYRVVSVLPIGHQDWLKGKQFTCKVNHIGLPSPIERTISKARGQAHQPSVYVLPPSREELSKNTVSLTCLIKDFFPPDIDVEWQSNGQQEPESKYRTTPPQLDEDGSYFLYSKLSVDKSRWQRGDTFICAVMHEALHNHYTQKSLSHSPGK VL: SYVLTQLPSVSVTLRQTARITCGGDSIRSKNVYWYQKKLGQAPVLIIYDDSSRPSGIPERFSGANSGNTATLTISGALAEDEADYYCQVWDSSTSVFGGGTHLTVL"
